Test results: US20230374142A1 (MONASH UNIVERSITY, published 2023)

B1: human/rat chimaeric anti-CLEC9A Ab (clone 4C6) (antibody, V domains shown)
VH: EVQLVESGGGLVQPGGSLKLSCVASGFTFNNYWLAWIRQAPRKGLEWVASITTAAGGTYYPDSVKGRFTISRDNAKSTLYLQMNSLTSEDTATYYCTRVGRDIWDYWGQGVVVTVSS
VL: EILMTQTPVSLPVSLGGQVSFSCRSSQSLLHSDGNTYLHWYLQKPGQSPQLLIWRISNRFSGVPDRFSGSGSGTDFTLKISRVEPEDLGVYYCLQSSHFPPTFGGGTNLEIKR
notes: also called human chimeric anti-Clec9A Ab; original human chimaeric anti-CLEC9A Ab
B2: humanised anti-CLEC9A Ab (Ab1) (antibody, human IgG4 S228P, kappa, V domains shown)
VH: EVQLLESGGGLVQPGGSLRLSCAASGFTFNNYWLAWVRQAPGKGLEWVASITTAAGGTYYPDSVKGRFTISRDNSKNTLYLQMNSLRAEDTAVYYCTRVGRDIWDYWGQGTLVTVSS
VL: DIVMTQTPLSLSVTPGQPASISCKSSQSLLHSDGNTYLHWYLQKPGQPPQLLIWRISNRFSGVPDRFSGSGSGTDFTLKISRVEAEDVGVYYCLQSSHFPPTFGGGTKVEIKR
notes: Human IgG4 / kappa; also called Humanised CLEC9A Ab; humanised anti-CLEC9A antibody

Target: T1, full-length human CLEC9A on transfected 293F cells (human, UniProt Q6UXN8 1-241)
T1 construct: also called cell surface CLEC9A
T1 sequence (Q6UXN8 whole entry): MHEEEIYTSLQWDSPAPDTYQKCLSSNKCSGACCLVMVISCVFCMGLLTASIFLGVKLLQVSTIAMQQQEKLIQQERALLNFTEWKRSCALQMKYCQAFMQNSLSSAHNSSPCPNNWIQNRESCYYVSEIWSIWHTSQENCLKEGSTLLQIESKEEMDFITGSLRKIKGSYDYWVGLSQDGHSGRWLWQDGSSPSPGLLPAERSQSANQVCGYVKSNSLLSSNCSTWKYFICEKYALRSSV
Assay: flow cytometry on 293F cells transfected with full-length human CLEC9A

| Binder | binding result |
| --- | --- |
| B1 | binds |
| B2 | binds |
